Bridges are numbered along the chain shown (N, C = ends). Primed or numbered codes have the meaning given here. Side-chain parts run from the residue outwards. [ ]: non-standard residue; d: D form. Ygp(4) = Tyr with amino-capped PEG8 (O-(8x polyethylene glycol-amino)-tyrosine); Yn3(4) = Tyr with azide-capped PEG9 (O-(9x polyethylene glycol-azido)-tyrosine); Ygp(8) = Tyr, amino-capped PEG8 (O-(8x polyethylene glycol-amino)-tyrosine); Yn3(8) = Tyr, azide-capped PEG9 (O-(9x polyethylene glycol-azido)-tyrosine); Ygp″ = O-(8x polyethylene glycol-amino)-tyrosine; Yn3″ = O-(9x polyethylene glycol-azido)-tyrosine; PEG9′ = 9x polyethylene glycol; hSer = N[C@@H](CCO)C(=O)O; Nle = CCCC[C@H](N)C(=O)O
biological target: T1, IL-2Rβγ on HEK-Blue IL-2Rβγ reporter cells (InvivoGen) (UniProt P14784 27-551; P31785 23-369, limits assumed); test: cell-based or functional assay
T1 sequence (looked up) 1: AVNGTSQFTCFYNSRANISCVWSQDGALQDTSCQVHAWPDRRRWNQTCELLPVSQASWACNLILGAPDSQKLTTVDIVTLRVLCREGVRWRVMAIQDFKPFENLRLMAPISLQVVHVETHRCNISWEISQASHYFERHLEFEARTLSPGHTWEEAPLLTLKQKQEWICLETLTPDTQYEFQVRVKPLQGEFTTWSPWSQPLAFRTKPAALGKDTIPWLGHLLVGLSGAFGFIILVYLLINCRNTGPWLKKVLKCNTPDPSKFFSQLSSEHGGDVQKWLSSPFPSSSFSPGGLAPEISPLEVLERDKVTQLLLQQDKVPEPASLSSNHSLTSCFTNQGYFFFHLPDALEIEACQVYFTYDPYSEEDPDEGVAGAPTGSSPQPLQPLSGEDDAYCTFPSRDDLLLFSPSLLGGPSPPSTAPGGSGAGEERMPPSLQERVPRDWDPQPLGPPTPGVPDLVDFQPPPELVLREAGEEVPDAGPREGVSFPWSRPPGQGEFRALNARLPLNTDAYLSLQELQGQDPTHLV
T1 sequence (looked up) 2: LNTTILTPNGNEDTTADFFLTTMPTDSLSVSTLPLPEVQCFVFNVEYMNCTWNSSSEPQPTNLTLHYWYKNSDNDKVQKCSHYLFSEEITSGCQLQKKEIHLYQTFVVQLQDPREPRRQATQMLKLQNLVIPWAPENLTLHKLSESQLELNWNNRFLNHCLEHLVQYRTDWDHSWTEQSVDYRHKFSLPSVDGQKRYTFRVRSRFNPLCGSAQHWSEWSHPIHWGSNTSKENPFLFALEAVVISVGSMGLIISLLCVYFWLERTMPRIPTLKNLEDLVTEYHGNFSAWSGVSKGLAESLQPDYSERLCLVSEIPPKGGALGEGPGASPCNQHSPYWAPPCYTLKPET

Binder | Average EC50, HEK-Blue IL-2R (CD122+, CD132+) Reporter Assay, intact molecule | Average EC50, HEK-Blue IL-2R (CD122+, CD132+) Reporter Assay, MMP2 cleaved molecule
CMP-303 (ligand, bridge N-29; not fully specified (N-terminus, bridges); ends not checked) PLGLAGAPTSSSTKKTQLQLEHLLLDLQEILNGINNYKNPKLTR[Nle]L[hSer][Yn3″]KF[Ygp″][Nle]PKKATELKHLQCLEEELKPLEEVL[hSer]LAQSKNFHLRPRDLISNINVIVLELKGSETTF[hSer]CEYADETATIVEFLNRWITFSQSIISTLT | 0.521 nM | –
CMP-302, MMP2 cleaved (ligand, ends and bridges not checked; also: MMP2 cleaved, ring opened, cut site and remnants not given here) GPLGLAGAPTSSSTKKTQLQLEHLLLDLQEILNGINNYKNPKLTR[Nle]L[hSer][Yn3″]KF[Ygp″][Nle]PKKATELKHLQCLEEELKPLEEVL[hSer]LAQSKNFHLRPRDLISNINVIVLELKGSETTF[hSer]CEYADETATIVEFLNRWITFSQSIISTLT | – | 0.00646 nM
CMP-301 (ligand, lactam N-31; ends not checked) GPLGLAG[PEG9′]APTSSSTKKTQLQLEHLLLDLQEILNGINNYKNPKLTR[Nle]L[hSer][Yn3″]KF[Ygp″][Nle]PKKATELKHLQCLEEELKPLEEVL[hSer]LAQSKNFHLRPRDLISNINVIVLELKGSETTF[hSer]CEYADETATIVEFLNRWITFSQSIISTLT | 0.591 nM | –
CMP-304 (ligand, bridge N-29; not fully specified (N-terminus, bridges); ends not checked) PLGLAGAPTSSSTKKTQLQLEHLLLDLQEILNGINNYKNPKLTR[Nle]L[hSer][Yn3(4)]KF[Ygp(4)][Nle]PKKATELKHLQCLEEELKPLEEVL[hSer]LAQSKNFHLRPRDLISNINVIVLELKGSETTF[hSer]CEYADETATIVEFLNRWITFSQSIISTLT | 0.34 nM | –
CMP-304, MMP2 cleaved (ligand, ends and bridges not checked; also: MMP2 cleaved, ring opened, cut site and remnants not given here) PLGLAGAPTSSSTKKTQLQLEHLLLDLQEILNGINNYKNPKLTR[Nle]L[hSer][Yn3(4)]KF[Ygp(4)][Nle]PKKATELKHLQCLEEELKPLEEVL[hSer]LAQSKNFHLRPRDLISNINVIVLELKGSETTF[hSer]CEYADETATIVEFLNRWITFSQSIISTLT | – | 0.021 nM
CMP-302 (ligand, lactam N-30; ends not checked) GPLGLAGAPTSSSTKKTQLQLEHLLLDLQEILNGINNYKNPKLTR[Nle]L[hSer][Yn3″]KF[Ygp″][Nle]PKKATELKHLQCLEEELKPLEEVL[hSer]LAQSKNFHLRPRDLISNINVIVLELKGSETTF[hSer]CEYADETATIVEFLNRWITFSQSIISTLT | 0.436 nM | –
CMP-305, MMP2 cleaved (ligand, ends and bridges not checked; also: Glu15 and Lys23 side chains carried cleaved peptide linker, remnants after MMP2 cut not given here) APTSSSTKKTQLQLEHLLLDLQKILNGINNYKNPKLTR[Nle]L[hSer][Yn3(4)]KF[Ygp(4)][Nle]PKKATELKHLQCLEEELKPLEEVL[hSer]LAQSKNFHLRPRDLISNINVIVLELKGSETTF[hSer]CEYADETATIVEFLNRWITFSQSIISTLT | – | 0.0185 nM
CMP-303, MMP2 cleaved (ligand, ends and bridges not checked; also: MMP2 cleaved, ring opened, cut site and remnants not given here) PLGLAGAPTSSSTKKTQLQLEHLLLDLQEILNGINNYKNPKLTR[Nle]L[hSer][Yn3″]KF[Ygp″][Nle]PKKATELKHLQCLEEELKPLEEVL[hSer]LAQSKNFHLRPRDLISNINVIVLELKGSETTF[hSer]CEYADETATIVEFLNRWITFSQSIISTLT | – | 0.0218 nM
CMP-301, MMP2 cleaved (ligand, ends and bridges not checked; also: MMP2 cleaved, ring opened, cut site and remnants not given here) APTSSSTKKTQLQLEHLLLDLQEILNGINNYKNPKLTR[Nle]L[hSer][Yn3″]KF[Ygp″][Nle]PKKATELKHLQCLEEELKPLEEVL[hSer]LAQSKNFHLRPRDLISNINVIVLELKGSETTF[hSer]CEYADETATIVEFLNRWITFSQSIISTLT | – | 0.00726 nM
CMP-305 (ligand, bridge 15-23; not fully specified (bridges); ends not checked) APTSSSTKKTQLQLEHLLLDLQKILNGINNYKNPKLTR[Nle]L[hSer][Yn3(4)]KF[Ygp(4)][Nle]PKKATELKHLQCLEEELKPLEEVL[hSer]LAQSKNFHLRPRDLISNINVIVLELKGSETTF[hSer]CEYADETATIVEFLNRWITFSQSIISTLT | 0.497 nM | –
CMP-315 (ligand, ends and bridges not checked; also: further groups not given here) APTSSSTKKTQLQLEHLLLDLQKILNGINNYKNPKLTR[Nle]L[hSer][Yn3(4)]KF[Ygp(4)][Nle]PKKATELKHLQCLEEELKPLEEVL[hSer]LAQSKNFHLRPRDLISNINVIVLELKGSETTF[hSer]CEYADETATIVEFLNRWITFSQSIISTLT | 0.0554 nM | –
CMP-315, MMP2 cleaved (ligand, ends and bridges not checked; also: MMP2-cleaved, product after cut not given here, further groups not given here) APTSSSTKKTQLQLEHLLLDLQKILNGINNYKNPKLTR[Nle]L[hSer][Yn3(4)]KF[Ygp(4)][Nle]PKKATELKHLQCLEEELKPLEEVL[hSer]LAQSKNFHLRPRDLISNINVIVLELKGSETTF[hSer]CEYADETATIVEFLNRWITFSQSIISTLT | – | 0.0418 nM

biological target: T2, IL-2 receptor βγ complex (human, UniProt P14784 27-551; P31785 23-369); test: cell-based or functional assay
T2 sequence (looked up) 1: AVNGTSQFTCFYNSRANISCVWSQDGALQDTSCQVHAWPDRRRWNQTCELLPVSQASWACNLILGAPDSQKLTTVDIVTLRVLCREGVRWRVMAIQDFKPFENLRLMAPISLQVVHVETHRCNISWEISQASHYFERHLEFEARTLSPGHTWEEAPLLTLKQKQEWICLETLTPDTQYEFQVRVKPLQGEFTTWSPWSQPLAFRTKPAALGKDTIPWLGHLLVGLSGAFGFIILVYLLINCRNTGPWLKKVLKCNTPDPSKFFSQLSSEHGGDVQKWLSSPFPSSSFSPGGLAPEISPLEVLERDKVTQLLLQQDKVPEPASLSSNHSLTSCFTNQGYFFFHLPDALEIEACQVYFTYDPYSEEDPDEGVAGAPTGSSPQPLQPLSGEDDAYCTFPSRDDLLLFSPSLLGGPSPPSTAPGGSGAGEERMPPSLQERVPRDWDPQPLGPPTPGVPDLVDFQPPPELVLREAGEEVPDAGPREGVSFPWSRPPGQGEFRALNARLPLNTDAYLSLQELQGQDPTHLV
T2 sequence (looked up) 2: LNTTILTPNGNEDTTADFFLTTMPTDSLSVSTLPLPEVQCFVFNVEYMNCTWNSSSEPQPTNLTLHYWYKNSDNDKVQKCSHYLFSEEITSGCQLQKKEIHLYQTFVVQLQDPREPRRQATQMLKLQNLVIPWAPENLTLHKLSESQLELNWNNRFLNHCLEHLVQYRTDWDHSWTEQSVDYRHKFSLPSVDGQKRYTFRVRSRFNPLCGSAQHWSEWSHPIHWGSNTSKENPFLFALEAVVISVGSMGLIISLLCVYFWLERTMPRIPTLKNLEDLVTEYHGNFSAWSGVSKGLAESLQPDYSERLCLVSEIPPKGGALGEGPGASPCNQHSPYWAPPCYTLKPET

Binder | Average EC50, pSTAT5 Assay in NK cells
CMP-325 (ligand, not fully specified; ends and bridges not checked) RVANLVGAPTSSSTKKTQLQLEHLLLDLQE([Arg-Gly-Arg])ILNGINNYKNPKLTR[Nle]L[hSer][Yn3″]KF[Ygp″][Nle]PKKATELKHLQCLEEELKPLEEVL[hSer]LAQSKNFHLRPRDLISNINVIVLELKGSETTF[hSer]CEYADETATIVEFLNRWITFSQSIISTLT | 0.18 nM
CMP-323 (ligand, not fully specified; ends and bridges not checked) LVGAPTSSSTKKTQLQLEHLLLDLQE([Arg-Gly-Arg])ILNGINNYKNPKLTR[Nle]L[hSer][Yn3″]KF[Ygp″][Nle]PKKATELKHLQCLEEELKPLEEVL[hSer]LAQSKNFHLRPRDLISNINVIVLELKGSETTF[hSer]CEYADETATIVEFLNRWITFSQSIISTLT | 0.13 nM
CMP-321, MMP2 cleaved molecule (ligand, lactam N-32; also: MMP2 cleaved, cleavage site and product not given here) SGRVQPLVDAPTSSSTKKTQLQLEHLLLDLQEILNGINNYKNPKLTR[Nle]L[hSer][Yn3(8)]KF[Ygp(8)][Nle]PKKATELKHLQCLEEELKPLEEVL[hSer]LAQSKNFHLRPRDLISNINVIVLELKGSETTF[hSer]CEYADETATIVEFLNRWITFSQSIISTLT | 2.94 nM
CMP-324 (ligand, not fully specified (residue 26); ends and bridges not checked; also: Glu26 side chain attached to another sequence (short peptide)) LVGAPTSSSTKKTQLQLEHLLLDLQEILNGINNYKNPKLTR[Nle]L[hSer][Yn3″]KF[Ygp″][Nle]PKKATELKHLQCLEEELKPLEEVL[hSer]LAQSKNFHLRPRDLISNINVIVLELKGSETTF[hSer]CEYADETATIVEFLNRWITFSQSIISTLT | 0.38 nM
